Measurements reported in the Human Domainome abundance scans (Beltran et al. 2025).
± gives the uncertainty stated by the source.

B1: Kinesin-like protein KIF16B, residues 1213 to 1273; numbered along this chain, Q96L93 (parent)
chain: ETWTVFRRYSRFREMHKTLKLKYAELAALEFPPKKLFGNKDERVIAERRSHLEKYLRDFFS

Variants of: B1
Assay: abundance fitness (aPCA) (normalised: wild type 0, dead -1); higher = more abundant; growth selection in yeast, the domain comes from the species named
Settings: Homo sapiens

L21E and L21A are within error of each other in abundance fitness: 0.352 ± 0.062 for the first, 0.356 ± 0.075 for the second.

First: L21S
Second: L21Y
The abundance fitness of the first is higher: 0.254 ± 0.06 for the first, -0.477 ± 0.18 for the second.

Going from A28P to A28S, the abundance fitness rises from -0.424 ± 0.11 to -0.129 ± 0.1.

Going from A28M to A28R, the abundance fitness rises from -0.433 ± 0.16 to -0.036 ± 0.053.

A28Y and A28I are within error of each other in abundance fitness: -1.03 ± 0.39 for the first, -0.311 ± 0.49 for the second.

A28C and A28T are within error of each other in abundance fitness: -0.156 ± 0.13 for the first, 0.009 ± 0.08 for the second.

A28G and A28K are within error of each other in abundance fitness: -0.101 ± 0.072 for the first, -0.094 ± 0.17 for the second.

A28W and A28F are within error of each other in abundance fitness: -0.177 ± 0.11 for the first, -0.116 ± 0.34 for the second.

Going from A28V to G38M, the abundance fitness rises from -0.912 ± 0.18 to -0.492 ± 0.11.

G38P and G38W are within error of each other in abundance fitness: -0.279 ± 0.1 for the first, -0.144 ± 0.061 for the second.

Compared with G38R, G38C is lower in abundance fitness: -0.145 ± 0.044 for the first, -0.46 ± 0.16 for the second.

First: G38Y
Second: G38H
The abundance fitness of the first is lower: -0.8 ± 0.38 for the first, -0.151 ± 0.16 for the second.

G38Q and G38F are within error of each other in abundance fitness: -0.076 ± 0.073 for the first, -0.224 ± 0.13 for the second.

Compared with G38T, G38S is lower in abundance fitness: -0.061 ± 0.072 for the first, -0.234 ± 0.082 for the second.

G38A and G38N are within error of each other in abundance fitness: -0.202 ± 0.053 for the first, -0.195 ± 0.16 for the second.

G38K and G38E are within error of each other in abundance fitness: -0.346 ± 0.1 for the first, -0.173 ± 0.088 for the second.

G38I and G38L are within error of each other in abundance fitness: -0.347 ± 0.18 for the first, -0.458 ± 0.064 for the second.

G38D and A24G are within error of each other in abundance fitness: -0.678 ± 0.14 for the first, -0.446 ± 0.11 for the second.

First: A24R
Second: A24W
The abundance fitness of the first is higher: 0.178 ± 0.049 for the first, -0.569 ± 0.12 for the second.

A24V and A24Q are within error of each other in abundance fitness: -0.321 ± 0.095 for the first, -0.227 ± 0.12 for the second.

A24M and A24S are within error of each other in abundance fitness: -0.107 ± 0.13 for the first, -0.24 ± 0.1 for the second.

A24P and A24E are within error of each other in abundance fitness: -0.518 ± 0.33 for the first, -0.174 ± 0.1 for the second.

First: A24T
Second: A24L
The abundance fitness of the first is higher: -0.115 ± 0.1 for the first, -0.352 ± 0.075 for the second.

A24F and L29C are within error of each other in abundance fitness: -0.331 ± 0.17 for the first, -0.228 ± 0.14 for the second.

L29V and L29H are within error of each other in abundance fitness: -0.033 ± 0.063 for the first, -0.38 ± 0.41 for the second.

Compared with L29A, L29S is lower in abundance fitness: 0.172 ± 0.07 for the first, -0.513 ± 0.11 for the second.

L29F and L29Y are within error of each other in abundance fitness: -0.188 ± 0.25 for the first, -0.31 ± 0.32 for the second.

L29W and L29M are within error of each other in abundance fitness: 0.223 ± 0.052 for the first, 0.337 ± 0.063 for the second.

Compared with L29R, L29I is higher in abundance fitness: -0.192 ± 0.053 for the first, 0.427 ± 0.22 for the second.

Compared with L29E, L29K is higher in abundance fitness: -0.883 ± 0.12 for the first, -0.226 ± 0.08 for the second.

L29T and Y23I are within error of each other in abundance fitness: -0.132 ± 0.073 for the first, -0.034 ± 0.16 for the second.

First: Y23M
Second: Y23R
The abundance fitness of the first is higher: 0.051 ± 0.14 for the first, -0.726 ± 0.094 for the second.

First: Y23F
Second: Y23E
The abundance fitness of the first is higher: 0.296 ± 0.13 for the first, -0.897 ± 0.14 for the second.

Y23W and Y23C are within error of each other in abundance fitness: 0.177 ± 0.062 for the first, 0.167 ± 0.078 for the second.

Y23Q and Y23G are within error of each other in abundance fitness: -0.393 ± 0.099 for the first, -0.42 ± 0.086 for the second.

Y23H and Y23T are within error of each other in abundance fitness: -0.128 ± 0.26 for the first, -0.379 ± 0.14 for the second.

Compared with Y23S, Y23V is higher in abundance fitness: -0.528 ± 0.15 for the first, 0.39 ± 0.092 for the second.

Y23P and Y23K are within error of each other in abundance fitness: -1.06 ± 0.28 for the first, -0.803 ± 0.28 for the second.

Compared with Y23A, Y23L is higher in abundance fitness: 0.068 ± 0.076 for the first, 0.279 ± 0.069 for the second.

K20M and K20E are within error of each other in abundance fitness: -0.746 ± 0.15 for the first, -1.02 ± 0.19 for the second.

K20R and K20Q are within error of each other in abundance fitness: -0.211 ± 0.059 for the first, -0.411 ± 0.17 for the second.

K20A and K20C are within error of each other in abundance fitness: -0.632 ± 0.1 for the first, -0.574 ± 0.27 for the second.

K20N and K20W are within error of each other in abundance fitness: -1.01 ± 0.24 for the first, -0.734 ± 0.18 for the second.

K20H and K20D are within error of each other in abundance fitness: -0.421 ± 0.41 for the first, -0.945 ± 0.24 for the second.

K20L and K20V are within error of each other in abundance fitness: -0.671 ± 0.097 for the first, -0.853 ± 0.096 for the second.

K20P and K20Y are within error of each other in abundance fitness: -0.904 ± 0.21 for the first, -1 ± 0.26 for the second.

K20G and F31K are within error of each other in abundance fitness: -0.676 ± 0.11 for the first, -0.752 ± 0.35 for the second.

F31V and F31L are within error of each other in abundance fitness: -0.545 ± 0.079 for the first, -0.397 ± 0.12 for the second.

F31Q and F31N are within error of each other in abundance fitness: -0.716 ± 0.24 for the first, -0.703 ± 0.2 for the second.

First: F31W
Second: F31I
The abundance fitness of the first is higher: 0.194 ± 0.062 for the first, -0.64 ± 0.32 for the second.

Going from F31T to F31Y, the abundance fitness rises from -0.949 ± 0.19 to -0.295 ± 0.35.

F31S and F31D are within error of each other in abundance fitness: -0.699 ± 0.15 for the first, -0.946 ± 0.38 for the second.

First: F31R
Second: F31E
The abundance fitness of the first is lower: -0.692 ± 0.09 for the first, -0.46 ± 0.11 for the second.

F31G and F31C are within error of each other in abundance fitness: -0.862 ± 0.12 for the first, -0.644 ± 0.15 for the second.

Going from F31A to P32F, the abundance fitness rises from -0.573 ± 0.18 to 0.329 ± 0.093.

Going from P32Q to P32C, the abundance fitness rises from -0.243 ± 0.081 to 0.171 ± 0.075.

P32L and P32N are within error of each other in abundance fitness: 0.296 ± 0.056 for the first, 0.209 ± 0.088 for the second.

P32W and P32K are within error of each other in abundance fitness: 0.353 ± 0.065 for the first, 0.275 ± 0.065 for the second.

P32T and P32A are within error of each other in abundance fitness: 0.069 ± 0.056 for the first, 0.075 ± 0.055 for the second.

P32R and P32M are within error of each other in abundance fitness: 0.139 ± 0.049 for the first, 0.191 ± 0.046 for the second.

P32S and P32H are within error of each other in abundance fitness: 0.159 ± 0.085 for the first, 0.166 ± 0.47 for the second.

P32Y and P32E are within error of each other in abundance fitness: -0.691 ± 0.38 for the first, -0.374 ± 0.086 for the second.

Going from P32D to L26F, the abundance fitness rises from -0.082 ± 0.11 to 0.158 ± 0.1.

Going from L26C to L26D, the abundance fitness falls from -0.047 ± 0.19 to -0.573 ± 0.19.

Going from L26E to L26Y, the abundance fitness rises from -0.819 ± 0.15 to -0.306 ± 0.34.

First: L26T
Second: L26M
The abundance fitness of the first is lower: -0.851 ± 0.13 for the first, -0.298 ± 0.085 for the second.

Going from L26S to L26K, the abundance fitness rises from -0.77 ± 0.14 to -0.279 ± 0.16.

Compared with L26V, L26P is lower in abundance fitness: -0.364 ± 0.079 for the first, -0.652 ± 0.14 for the second.

Compared with L26W, L26A is lower in abundance fitness: -0.033 ± 0.067 for the first, -0.661 ± 0.14 for the second.

L26N and L26G are within error of each other in abundance fitness: -0.694 ± 0.19 for the first, -0.667 ± 0.082 for the second.

L26Q and L26H are within error of each other in abundance fitness: -1.04 ± 0.21 for the first, -0.946 ± 0.17 for the second.

L26R and L19A are within error of each other in abundance fitness: -0.872 ± 0.11 for the first, -0.737 ± 0.29 for the second.

L19T and L19G are within error of each other in abundance fitness: -0.844 ± 0.19 for the first, -0.977 ± 0.14 for the second.

L19P and L19N are within error of each other in abundance fitness: -1.02 ± 0.24 for the first, -0.658 ± 0.36 for the second.

L19K and L19Q are within error of each other in abundance fitness: -0.999 ± 0.16 for the first, -0.991 ± 0.24 for the second.

Compared with L19M, L19V is lower in abundance fitness: 0.144 ± 0.095 for the first, -0.656 ± 0.1 for the second.

L19E and L19S are within error of each other in abundance fitness: -0.917 ± 0.23 for the first, -1.11 ± 0.19 for the second.

Going from L19R to L19F, the abundance fitness rises from -1.07 ± 0.13 to -0.146 ± 0.11.

L19C and L19D are within error of each other in abundance fitness: -0.603 ± 0.22 for the first, -1.13 ± 0.34 for the second.

K40G and K40Q are within error of each other in abundance fitness: -0.269 ± 0.17 for the first, -0.164 ± 0.36 for the second.

Compared with T18S, T18Y is higher in abundance fitness: -0.133 ± 0.076 for the first, 0.508 ± 0.29 for the second.

T18R and T18V are within error of each other in abundance fitness: -0.222 ± 0.086 for the first, -0.038 ± 0.1 for the second.

Compared with T18N, T18W is higher in abundance fitness: -0.514 ± 0.23 for the first, 0.472 ± 0.073 for the second.

In the case of T18M, the abundance fitness is reported as -0.06 ± 0.067.
